Data: publication PMC5201417, “Drosophila non-muscle myosin II motor activity determines the rate of tissue folding” (eLife, 2016)

B1: Drosophila myosin essential light chain (Mlc-c) (natural protein, Drosophila melanogaster, UniProt P54357 1-147, looked up)
light: MAAYTEDQLAEFQEAFNLFDNRGDGKIQLSQVGECLRALGQNPTESDVKKCTHQLKPDERISFEVFLPIYQAISKARSGDTADDFIEGLRHFDKDASGYISSAELRHLLTTLGEKLTDEEVEQLLANMEDQQGNINYEEFVRMVMSG
notes: Drosophila myosin essential light chain Mlc-c; 16 kDa on the gel; also called ELC; source: Sf9 insect cells (baculovirus, polycistronic vector with Sqh), co-expressed and co-purified with the heavy chain
B2: Drosophila myosin regulatory light chain (Sqh), wild type (natural protein, Drosophila melanogaster, UniProt P40423 1-174, looked up)
light: MSSRKTAGRRATTKKRAQRATSNVFAMFDQAQIAEFKEAFNMIDQNRDGFVEKEDLHDMLASLGKNPTDDYLDGMMNEAPGPINFTMFLTLFGERLQGTDPEDVIKNAFGCFDEENMGVLPEDRLRELLTTMGDRFTDEDVDEMYREAPIKNGLFDYLEFTRILKHGAKDKDEQ
notes: Drosophila myosin regulatory light chain Sqh (spaghetti squash); 19 kDa on the gel; also called RLC; RLC-TS; source: Sf9 insect cells (baculovirus, polycistronic vector with Mlc-c), co-expressed and co-purified with the heavy chain

Legend:
[1] = biological target: Drosophila non-muscle myosin II heavy chain, HMM construct (amino acids 1-1363) (Drosophila melanogaster) (UniProt Q99323); assay: co-purification (Flag affinity chromatography, stained SDS gel); heavy chain and both light chains co-expressed in Sf9 cells, purified via Flag affinity chromatography (HMM also by size exclusion chromatography); PageBlue-stained 4-12% Bis-Tris gel
[2] = biological target: Drosophila non-muscle myosin II heavy chain, full length (amino acids 1-1971) (Drosophila melanogaster) (UniProt Q99323); assay: as above
[3] = biological target: filamentous actin from rabbit skeletal muscle (rabbit) (UniProt P68135)
[4] = biological target: T1, Drosophila non-muscle myosin II heavy chain, full length (amino acids 1-1971) (Drosophila melanogaster, UniProt Q99323-2 1-1971); assay: co-purification (Flag affinity chromatography, stained SDS gel); heavy chain and both light chains co-expressed in Sf9 cells, purified via Flag affinity chromatography (HMM also by size exclusion chromatography); PageBlue-stained 4-12% Bis-Tris gel; details: partners not purified
T1 construct: the heavy chain alone, for the rows of heavy chain with each light chain; also called full-length (228 kDa); myosin heavy chain

[5] = biological target: T2, Drosophila non-muscle myosin II heavy chain, HMM construct (amino acids 1-1363) (Drosophila melanogaster, UniProt Q99323-2 1-1363); assay: as above; details: partners not purified
T2 construct: numbers count on: NP_001014553.1; the heavy chain alone, for the rows of heavy chain with each light chain; whether it carries the Halo tag is not clear; also called HMM (160 kDa); myosin heavy chain
T2 sequence (Q99323 other isoform, or with tags, fused parts or gaps): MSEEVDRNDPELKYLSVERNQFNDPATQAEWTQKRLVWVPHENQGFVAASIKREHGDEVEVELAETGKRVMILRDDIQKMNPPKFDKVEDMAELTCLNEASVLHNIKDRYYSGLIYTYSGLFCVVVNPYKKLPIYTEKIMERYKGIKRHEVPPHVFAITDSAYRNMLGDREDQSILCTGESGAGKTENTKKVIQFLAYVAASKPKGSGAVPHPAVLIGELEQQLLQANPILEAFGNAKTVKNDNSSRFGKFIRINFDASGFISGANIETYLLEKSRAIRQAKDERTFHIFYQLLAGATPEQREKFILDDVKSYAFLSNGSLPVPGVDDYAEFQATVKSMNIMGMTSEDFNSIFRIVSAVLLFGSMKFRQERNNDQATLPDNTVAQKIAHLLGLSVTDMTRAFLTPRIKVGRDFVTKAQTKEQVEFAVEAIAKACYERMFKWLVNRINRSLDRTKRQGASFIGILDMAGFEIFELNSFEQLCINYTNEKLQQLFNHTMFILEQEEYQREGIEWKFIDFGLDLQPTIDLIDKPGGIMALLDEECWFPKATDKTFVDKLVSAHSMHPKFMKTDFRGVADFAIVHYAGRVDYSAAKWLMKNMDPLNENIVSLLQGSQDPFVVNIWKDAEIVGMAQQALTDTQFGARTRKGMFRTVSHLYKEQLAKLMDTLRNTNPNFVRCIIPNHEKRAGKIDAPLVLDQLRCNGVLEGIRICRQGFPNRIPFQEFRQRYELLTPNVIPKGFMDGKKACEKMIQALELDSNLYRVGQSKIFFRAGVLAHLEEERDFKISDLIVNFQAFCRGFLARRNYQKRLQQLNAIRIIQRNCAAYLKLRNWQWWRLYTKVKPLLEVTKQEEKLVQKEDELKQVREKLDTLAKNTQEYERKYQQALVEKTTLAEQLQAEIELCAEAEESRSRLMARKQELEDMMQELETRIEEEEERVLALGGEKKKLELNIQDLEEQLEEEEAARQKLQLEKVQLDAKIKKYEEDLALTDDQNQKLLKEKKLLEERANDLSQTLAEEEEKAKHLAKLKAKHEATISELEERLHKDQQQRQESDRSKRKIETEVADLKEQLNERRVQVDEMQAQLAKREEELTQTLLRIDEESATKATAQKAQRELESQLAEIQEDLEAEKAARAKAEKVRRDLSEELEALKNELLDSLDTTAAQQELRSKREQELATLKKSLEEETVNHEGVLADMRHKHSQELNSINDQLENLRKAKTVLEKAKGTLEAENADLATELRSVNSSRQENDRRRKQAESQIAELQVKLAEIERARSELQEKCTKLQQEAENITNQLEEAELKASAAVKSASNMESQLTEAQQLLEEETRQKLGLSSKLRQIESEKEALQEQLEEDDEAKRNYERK

Sequence of Drosophila non-muscle myosin II heavy chain, full length (amino acids 1-1971) (Drosophila melanogaster) (Q99323 other isoform, or with tags, fused parts or gaps): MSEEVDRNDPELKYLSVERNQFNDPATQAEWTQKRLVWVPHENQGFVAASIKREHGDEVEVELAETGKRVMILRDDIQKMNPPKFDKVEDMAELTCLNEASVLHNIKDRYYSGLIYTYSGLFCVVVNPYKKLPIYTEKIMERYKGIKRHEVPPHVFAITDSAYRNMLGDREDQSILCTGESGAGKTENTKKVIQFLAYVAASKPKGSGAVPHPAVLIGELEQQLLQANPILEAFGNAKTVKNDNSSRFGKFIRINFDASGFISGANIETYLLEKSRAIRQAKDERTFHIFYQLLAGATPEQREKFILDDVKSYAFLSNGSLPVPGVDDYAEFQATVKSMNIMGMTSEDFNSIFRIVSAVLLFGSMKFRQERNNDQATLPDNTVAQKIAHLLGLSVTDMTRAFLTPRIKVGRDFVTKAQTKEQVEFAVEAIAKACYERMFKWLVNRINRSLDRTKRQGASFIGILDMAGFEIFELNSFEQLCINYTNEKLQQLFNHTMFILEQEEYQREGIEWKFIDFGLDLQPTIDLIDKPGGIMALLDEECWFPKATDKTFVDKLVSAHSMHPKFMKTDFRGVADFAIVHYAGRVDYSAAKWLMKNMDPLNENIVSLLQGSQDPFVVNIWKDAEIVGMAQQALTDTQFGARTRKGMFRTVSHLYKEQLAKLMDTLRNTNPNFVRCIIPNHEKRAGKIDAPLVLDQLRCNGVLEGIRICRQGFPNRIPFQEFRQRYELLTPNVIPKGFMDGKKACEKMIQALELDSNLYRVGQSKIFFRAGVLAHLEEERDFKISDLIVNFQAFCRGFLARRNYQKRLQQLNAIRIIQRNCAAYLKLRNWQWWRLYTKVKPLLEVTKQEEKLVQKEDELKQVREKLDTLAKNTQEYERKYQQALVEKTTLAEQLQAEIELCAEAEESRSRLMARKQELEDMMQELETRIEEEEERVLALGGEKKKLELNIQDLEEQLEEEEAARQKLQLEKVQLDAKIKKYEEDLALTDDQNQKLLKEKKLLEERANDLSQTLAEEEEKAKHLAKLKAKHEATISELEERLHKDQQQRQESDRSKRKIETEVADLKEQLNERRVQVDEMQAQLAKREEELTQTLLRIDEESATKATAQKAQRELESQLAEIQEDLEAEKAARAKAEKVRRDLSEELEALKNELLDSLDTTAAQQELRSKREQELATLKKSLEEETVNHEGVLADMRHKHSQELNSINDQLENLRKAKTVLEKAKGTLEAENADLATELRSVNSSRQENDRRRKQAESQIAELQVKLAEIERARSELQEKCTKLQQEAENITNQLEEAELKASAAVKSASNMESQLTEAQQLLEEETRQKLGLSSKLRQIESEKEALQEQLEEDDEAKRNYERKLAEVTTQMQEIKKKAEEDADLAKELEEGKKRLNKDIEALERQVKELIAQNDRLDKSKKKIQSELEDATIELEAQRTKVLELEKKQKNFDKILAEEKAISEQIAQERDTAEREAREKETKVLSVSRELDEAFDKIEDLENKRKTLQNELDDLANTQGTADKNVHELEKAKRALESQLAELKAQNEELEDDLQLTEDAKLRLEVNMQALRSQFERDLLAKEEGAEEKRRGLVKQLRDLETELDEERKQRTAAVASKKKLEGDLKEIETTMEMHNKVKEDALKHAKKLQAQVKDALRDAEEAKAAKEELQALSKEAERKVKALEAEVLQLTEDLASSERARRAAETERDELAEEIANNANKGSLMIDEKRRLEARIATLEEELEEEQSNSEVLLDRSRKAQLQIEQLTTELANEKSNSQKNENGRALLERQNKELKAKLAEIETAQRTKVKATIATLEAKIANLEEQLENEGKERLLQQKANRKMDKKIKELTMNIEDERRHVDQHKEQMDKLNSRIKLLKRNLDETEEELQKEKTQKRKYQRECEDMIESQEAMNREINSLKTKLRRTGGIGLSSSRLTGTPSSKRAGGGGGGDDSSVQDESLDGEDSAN

| Molecule | stoichiometry N [1] | stoichiometry N [2] | Kapp (apparent actin affinity) of the actin-activated steady-state ATPase, NADH-linked assay at 25°C, 0-100 µM filamentous actin, Michaelis-Menten fit [3] | stoichiometry N [4] | stoichiometry N [5] |
| --- | --- | --- | --- | --- | --- |
| Drosophila myosin regulatory light chain (Sqh), mutant RLC-AA (natural protein) | 1 | 1 |  |  |  |
| Drosophila myosin regulatory light chain (Sqh), mutant RLC-AE (natural protein) | 1 | 1 |  |  |  |
| Drosophila myosin regulatory light chain (Sqh), mutant RLC-AS (natural protein) | 1 | 1 |  |  |  |
| Drosophila myosin regulatory light chain (Sqh), mutant RLC-EE (natural protein) | 1 | 1 |  |  |  |
| Drosophila myosin regulatory light chain (Sqh), mutant RLC-TA (natural protein) | 1 | 1 |  |  |  |
| Drosophila non-muscle myosin II heavy meromyosin (HMM) with wild-type RLC, phosphorylated by MLCK (from UniProt Q99323-2 1-1363; P40423 1-174; P54357 1-147) (complex) |  |  | 38.9 µM |  |  |
| B1 |  |  |  | 1 | 1 |
| B2 |  |  |  | 1 | 1 |
